Data on five molecules can be found in patent publication US12365732.

B1: h10G1 IgG (humanized 10G1) (antibody, V domains shown)
VH: EIQLVQSGSELKKPGASVKVSCKASGYPFTTYGMSWVRQAPGQGLEWMGWINTDSGVPTYADDFKGRFVFSLDTSVSTAYLQISSLKAEDTAVYFCARNIYYGWGNFDYWGQGTLVTVSS
VL: EIVMTQSPDFQSVTPKEKVTITCRASQDIYRNLHWYQQKPDQTPKLLIKHASDSISGIPSRFSGSGSGTDFTLTINSLEAEDAAAYYCLQGYSMPYTFGGGTKVEIKG
B2: mAb1.v7.NGS10 IgG (antibody, V domains shown)
VH: EVQLVQSGAEVKKPGASVKVSCKASGFTFTNNFMHWVRQAPGQGLEWIGFIHANSGITNINEKFKNRVTMTTDTSTSTAYMELRSLRSEDTAVYYCRSDGIYEGYFDYWGQGTLVTVSS
VL: DIQLTQSPSSLSASVGDRVTITCKASQNVGTAIVWYQQKPGKAPKVLIYSASTRYTGVPSRFSGSGSGTDFTLTISSLQPEDFATYYCQQYSSSPLTFGQGTKVEIKG
B3: mAb1.v7.NGS9 IgG (antibody, V domains shown)
VH: B2 VH with F50M, I101V
VL: B2 VL
B4: mAb1.v7.NGS11 IgG (antibody, V domains shown)
VH: B2 VH with I101V
VL: B2 VL
B5: mAb1.v7.NGS8 IgG (antibody, V domains shown)
VH: B2 VH with F50M
VL: B2 VL

Where a chain is given by its changes, count along the chain named.

The target in the first assay is human CD96 on primary human immune cells (PBMCs, NK cells, CD4+ T cells) (human) (UniProt P40200). Kind of assay: FACS, Ab 16 nM. For orientation: Flow cytometry measures light scatter and fluorescence of single cells or particles in a stream.
In the case of B1, the % positive turned out to be 81.4%.
On the same count and under the same terms, under B2 stands 97.1%; under B3, 97.1%; under B4, 96.7%.
On to B5, for which the % positive worked out at 96.2%.

The target is the same in another assay. Description: FACS, Ab 80 nM.
Regarding B1, the % positive is 88.7%.
The molecule B2 gave a % positive of 97.7%.
With B3, the % positive stood at 97.8%.
In the case of B4, the % positive was 97.2%.
In turn, B5 displayed a % positive of 97.8%.

The next assay has the same target. Description: FACS, Ab 3.2 nM.
With B1, the % positive turned out to be 64.4%.
On to B2, for which the % positive was determined as 93.8%.
Regarding B3, the % positive worked out at 95.1%.
Turning to B4, the % positive is 94.2%.
The same measure, in the same setting: the same measure for B5: 92.3%.

For a further assay the target is unchanged. Kind of assay: FACS, Ab 0.64 nM.
B1 yielded a % positive of 53.5%.
Same read-out and setting: under B2 stands 88.8%.
Take B3: the % positive turned out to be 90.8%.
On the same count and under the same terms, under B4 stands 89.7%; under B5, 89.3%.

The next assay has the same target. Description: FACS, Ab 0.128 nM.
For B1, the % positive was determined as 39.1%.
In the case of B2, the % positive was found to be 66.7%.
Molecule B3 registered a % positive of 64.7%.
On to B4, for which the % positive turned out to be 61.1%.
In turn, B5 gave a % positive of 64.2%.

A further assay shares this target. Description: FACS, Ab 0.0256 nM.
In the case of B1, the % positive is 14.6%.
Same read-out and setting: under B2 stands 16.9%; under B3, 22.5%; under B4, 11.6%.
The molecule B5 came in with a % positive of 22%.

For a further assay the target is unchanged. Description: FACS, Ab 0.00512 nM.
As for B1, the % positive was determined as 5.4%.
B2 returned a % positive of 6.1%.
B3 came in with a % positive of 8.2%.
Regarding B4, the % positive stood at 5.4%.
Still for that read-out and setting: under B5 stands 8.6%.

The target is the same in another assay. Kind of assay: FACS, % positive curve.
Consider B1, for which the concentration for a half-maximal effect (EC50) was determined as 0.28 nM. This counts as sub-nanomolar.
Consider B2, for which the EC50 was 0.069 nM. This EC50 lies about 4.1-fold lower than the previous one.
For the molecule B3, the EC50 is 0.071 nM.
B4 yielded an EC50 of 0.083 nM.
Turning to B5, the 50% effective concentration (EC50) came out at 0.072 nM.

Another assay has the same target. Description: cell-based or functional assay.
B1 came in with a Human NK cell IFNγ secretion (fold over background), Ab 0.0032 nM of 1 fold; a Human NK cell IFNγ secretion (fold over background), Ab 0.016 nM of 1.13 fold; a Human NK cell IFNγ secretion (fold over background), Ab 0.08 nM of 1.38 fold; a Human NK cell IFNγ secretion (fold over background), Ab 0.4 nM of 1.96 fold. Besides, the Human NK cell IFNγ secretion (fold over background), Ab 2 nM is 2.08 fold; the Human NK cell IFNγ secretion (fold over background), Ab 10 nM is 2.19 fold; the Human NK cell IFNγ secretion (fold over background), Ab 50 nM amounted to 2.21 fold; the Human NK cell IFNγ secretion (fold over background), Ab 250 nM worked out at 1.87 fold. The same molecule showed a Human NK cell IFNγ secretion, EC50 of 0.112 nM.
In turn, B2 gave a Human NK cell IFNγ secretion (fold over background), Ab 0.0032 nM of 1 fold; a Human NK cell IFNγ secretion (fold over background), Ab 0.016 nM of 1.24 fold; a Human NK cell IFNγ secretion (fold over background), Ab 0.08 nM of 1.36 fold; a Human NK cell IFNγ secretion (fold over background), Ab 0.4 nM of 1.81 fold. In addition, the Human NK cell IFNγ secretion (fold over background), Ab 2 nM was 2.12 fold; the Human NK cell IFNγ secretion (fold over background), Ab 10 nM turned out to be 1.94 fold; the Human NK cell IFNγ secretion (fold over background), Ab 50 nM is 2.05 fold; the Human NK cell IFNγ secretion (fold over background), Ab 250 nM was 1.87 fold. This molecule showed a Human NK cell IFNγ secretion, EC50 of 0.084 nM.

For orientation: EC50 means the concentration needed to bring the measured effect to its halfway point. A low value points to higher potency in that assay.
